According to US20050037969A1 (ARBOR VITA, published 2005):
Ends that are not written are not given here. * marks the point of attachment. Biotin = O=C1N[C@H]2[C@H](CS[C@H]2CCCCC(=O)*)N1

Key:
Assay in all cases: A/G assays
[1] = biological target: T1, GST-TAX-IP2 PDZ domain fusion protein (human, UniProt O14908 129-216)
T1 construct: also called TAX-1P2; TAX2; not shown: glutathione S-transferase encoded by vector pGEX-3X (Pharmacia)
T1 chain: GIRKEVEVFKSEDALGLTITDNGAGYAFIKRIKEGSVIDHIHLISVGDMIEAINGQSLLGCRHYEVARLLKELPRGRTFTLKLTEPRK

[2] = biological target: T2, GST-PTN-4 PDZ domain fusion protein (Homo sapiens (Human), UniProt P29074 517-605)
T2 construct: also called protein-tyrosine phosphatase meg1; not shown: glutathione S-transferase encoded by vector pGEX-3X (Pharmacia)
T2 sequence: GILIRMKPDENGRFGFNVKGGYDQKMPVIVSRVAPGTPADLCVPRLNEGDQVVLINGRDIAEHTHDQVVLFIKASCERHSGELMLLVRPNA

[3] = biological target: T3, GST-MPP1 PDZ domain fusion protein (Homo sapiens (Human), UniProt Q00013 67-152)
T3 construct: also called p55; 55 Kd erythrocyte membrane protein; not shown: glutathione S-transferase encoded by vector pGEX-3X (Pharmacia)
T3 sequence: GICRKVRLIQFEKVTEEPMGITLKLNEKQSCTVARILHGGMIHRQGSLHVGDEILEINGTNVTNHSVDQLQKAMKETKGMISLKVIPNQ

[4] = biological target: T4, GST-prIL16 fusion protein (PDZ domains 1-2) (Homo sapiens (Human), UniProt Q14005 1111-1324)
T4 construct: also called putative interleukin 16 precursor; not shown: glutathione S-transferase encoded by vector pGEX-3X (Pharmacia)
T4 sequence: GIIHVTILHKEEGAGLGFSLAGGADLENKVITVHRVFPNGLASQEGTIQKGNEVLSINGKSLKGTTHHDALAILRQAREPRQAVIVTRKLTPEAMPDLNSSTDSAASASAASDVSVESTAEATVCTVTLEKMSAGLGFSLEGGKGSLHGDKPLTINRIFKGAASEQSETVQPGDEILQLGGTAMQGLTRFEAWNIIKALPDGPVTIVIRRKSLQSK

[5] = biological target: T5, GST-cytohesin binding protein PDZ domain fusion protein (Homo sapiens (Human), UniProt O60759 74-165)
T5 construct: also called CBP; not shown: glutathione S-transferase encoded by vector pGEX-3X (Pharmacia)
T5 sequence: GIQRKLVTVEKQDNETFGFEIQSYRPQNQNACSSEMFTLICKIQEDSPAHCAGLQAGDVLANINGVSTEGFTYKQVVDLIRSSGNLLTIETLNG

[6] = biological target: T6, GST-RGS12 PDZ domain fusion protein (human, UniProt O14924 17-85)
T6 construct: also called human regulator of G-protein signalling 12; not shown: glutathione S-transferase encoded by vector pGEX-3X (Pharmacia)
T6 sequence: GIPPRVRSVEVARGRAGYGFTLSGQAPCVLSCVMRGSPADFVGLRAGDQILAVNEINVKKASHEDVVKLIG

[7] = biological target: T7, GST-TAX-IP40 PDZ domain fusion protein (human, UniProt Q6B4M5 150-252 (rat entry))
T7 construct: also called TAX40; not shown: glutathione S-transferase encoded by vector pGEX-3X (Pharmacia)
T7 sequence: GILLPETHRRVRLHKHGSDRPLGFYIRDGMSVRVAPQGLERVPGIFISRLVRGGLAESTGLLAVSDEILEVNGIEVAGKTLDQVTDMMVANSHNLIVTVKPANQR

[8] = biological target: T8, GST-TIAM1 PDZ domain fusion protein (Homo sapiens (Human), UniProt Q13009 845-931)
T8 construct: also called TLAM1; T-lymphoma invasion and metastasis inducing protein 1; not shown: glutathione S-transferase encoded by vector pGEX-3X (Pharmacia)

[9] = biological target: T9, GST-KIAA0303 PDZ domain fusion protein (Homo sapiens (Human), UniProt O15021 1138-1228)
T9 construct: also called K303; not shown: glutathione S-transferase encoded by vector pGEX-3X (Pharmacia)
T9 sequence: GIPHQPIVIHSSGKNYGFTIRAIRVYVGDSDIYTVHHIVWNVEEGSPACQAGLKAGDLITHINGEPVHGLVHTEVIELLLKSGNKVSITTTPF

[10] = biological target: T10, PICK1 PDZ-GST fusion protein (Bos taurus (Bovine), UniProt Q2T9M1 17-105)
T10 construct: Order of GST and PDZ part and limits not seen in the excerpts

[11] = biological target: T11, K858 PDZ-GST fusion protein (Homo sapiens (Human), UniProt Q8WWI1 1038-1131)
T11 construct: Order of GST and PDZ part and limits not seen in the excerpts
T11 sequence: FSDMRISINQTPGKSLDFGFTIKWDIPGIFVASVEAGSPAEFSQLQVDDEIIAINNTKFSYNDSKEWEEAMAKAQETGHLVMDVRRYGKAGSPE

[12] = biological target: T12, SP short PDZ-GST fusion protein (Homo sapiens (Human), UniProt O43464 350-435)
T12 construct: The label SP short is not explained in the excerpts
T12 sequence: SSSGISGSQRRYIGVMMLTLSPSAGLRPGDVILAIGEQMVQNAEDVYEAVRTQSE

[13] = biological target: T13, ConEn PDZ-GST fusion protein (Homo sapiens (Human), UniProt Q969H4 193-287)
T13 construct: The label ConEn is not explained in the excerpts
T13 sequence: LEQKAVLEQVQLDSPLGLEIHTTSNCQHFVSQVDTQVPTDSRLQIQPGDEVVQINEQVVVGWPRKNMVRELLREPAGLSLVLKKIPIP

[14] = biological target: T14, NSP PDZ-GST fusion protein (Homo sapiens (Human), UniProt Q92743 370-466)
T14 construct: The label NSP is not explained in the excerpts

[15] = biological target: T15, NOS1 PDZ-GST fusion protein (Homo sapiens (Human), UniProt P29475 11-100)
T15 construct: Order of GST and PDZ part and limits not seen in the excerpts

[16] = biological target: T16, GST-AF6 PDZ domain fusion protein (Homo sapiens (Human), UniProt P55196 1001-1093)
T16 construct: also called af-6 protein; not shown: glutathione S-transferase encoded by vector pGEX-3X (Pharmacia)
T16 sequence: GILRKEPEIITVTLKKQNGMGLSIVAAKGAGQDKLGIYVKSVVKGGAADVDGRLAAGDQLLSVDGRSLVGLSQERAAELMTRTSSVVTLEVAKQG

Measured: binding result

T8 sequence (Q13009 other isoform, or with tags, fused parts or gaps): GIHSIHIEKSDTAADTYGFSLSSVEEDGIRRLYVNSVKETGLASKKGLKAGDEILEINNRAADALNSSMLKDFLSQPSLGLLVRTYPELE
T14 sequence (Q92743 other isoform, or with tags, fused parts or gaps limits assumed): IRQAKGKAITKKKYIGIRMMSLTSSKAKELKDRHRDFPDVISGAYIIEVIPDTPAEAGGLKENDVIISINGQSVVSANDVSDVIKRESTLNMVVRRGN
T15 sequence (P29475 11-100 limits assumed): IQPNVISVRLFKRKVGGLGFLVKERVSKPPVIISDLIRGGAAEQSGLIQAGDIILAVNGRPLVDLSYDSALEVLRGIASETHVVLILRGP
T10 sequence (Q2T9M1 other isoform, or with tags, fused parts or gaps limits assumed): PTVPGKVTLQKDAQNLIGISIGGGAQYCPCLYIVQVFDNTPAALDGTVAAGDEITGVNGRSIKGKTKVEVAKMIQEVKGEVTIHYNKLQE

Biotin-CAISGTSSDRGYGSPRYAEV (also called AA3L-V) [Clasp-4 C-terminal peptide AA3L, biotinylated]
not listed: [16]
no binding: all other assays above

Biotin-TREDIYVNYPTFSRRPKTRV [DNAM-1 C-terminal peptide AA22L, biotinylated]
not listed: [3] | [6] | [15] | [16]
no binding: all other assays above

Biotin-TTNNNPNSAVNIKKIFTDV [KV1.3 C-terminal peptide AA33L, biotinylated]
not listed: [6]
no binding: all other assays above

Biotin-QGDPALQDAGDSSRKEYFI (also called GC) [Glycophorin C C-terminal peptide AA37L, biotinylated]
not listed: [3] | [16]
no binding: all other assays above

Biotin-QFMTADETRNLQNVDMKIGV (also called CD44 (long form)) [CD44 C-terminal peptide AA9L, biotinylated]
not listed: [3] | [4]
no binding: all other assays above

Biotin-EVICYIEKPGVETLEDSVF [CDW125 (IL5R) C-terminal peptide AA28L, biotinylated]
not listed: [2] | [6]
no binding: all other assays above

Biotin-ARKANMKGSYSLVEAQKSKV (also called CD106) [VCAM1 C-terminal peptide AA17L, biotinylated]
not listed: [3] | [8] | [9]
no binding: all other assays above

B1: Spectrin (beta) C-terminal peptide AA32L, biotinylated (peptide)
peptide: Biotin-SFPPCGHRENVPGQSLVSFV
notes: Marked (S), sticky; also called Spectrin beta (S); Spectrin β
no binding: [1] | [4] | [6] | [7] | [8] | [10] | [11] | [12]

Biotin-KDSRPSFVGSSSGHTSTTL (also called CDW128E (IL8RB)) [CDW128B (IL8RB) C-terminal peptide AA29.2L, biotinylated]
not listed: [6]
no binding: all other assays above
